Laboratory results as given in IntAct's records for PubMed 15965486.

Biological target: vps35_mouse Vps35 (UniProt Q9EQH3)

Vacuolar protein sorting-associated protein 29 (Mus musculus) (from UniProt Q9QZ88-1) I91S
effect of a mutation on the interaction: disrupting interaction strength

Vacuolar protein sorting-associated protein 29 (Mus musculus) (from UniProt Q9QZ88-1) N39D
effect of a mutation on the interaction: decreasing interaction strength

Vacuolar protein sorting-associated protein 29 (Mus musculus) (from UniProt Q9QZ88-1) V90D
effect of a mutation on the interaction: decreasing interaction strength
